From publication PMC3797037, “Structural and Mechanistic Insight into DNA Unwinding by Deinococcus radiodurans UvrD” (PLoS ONE, 2013)

Legend:
drUvrD G426T = target: T1, drUvrD G426T (Deinococcus radiodurans, UniProt Q9RTI9 1-745, G426T); assay: fluorescence anisotropy; 1 mM AMPPNP; not significantly different from WT; Fluorescence anisotropy: buffer A (composition not in material) + 0.05% Tween 20, 0.1 mg/mL BSA, 1 mM AMPPNP; 2.5 nM DNA, 0-8 µM protein, 80 µl, room temperature; single-site fit; settings: protein: recombinant, tags: N-terminal His-tag cleaved with TEV (pET151d), label: fluorescein (internal dT12), 25 bp duplex, other end blunt
T1 sequence: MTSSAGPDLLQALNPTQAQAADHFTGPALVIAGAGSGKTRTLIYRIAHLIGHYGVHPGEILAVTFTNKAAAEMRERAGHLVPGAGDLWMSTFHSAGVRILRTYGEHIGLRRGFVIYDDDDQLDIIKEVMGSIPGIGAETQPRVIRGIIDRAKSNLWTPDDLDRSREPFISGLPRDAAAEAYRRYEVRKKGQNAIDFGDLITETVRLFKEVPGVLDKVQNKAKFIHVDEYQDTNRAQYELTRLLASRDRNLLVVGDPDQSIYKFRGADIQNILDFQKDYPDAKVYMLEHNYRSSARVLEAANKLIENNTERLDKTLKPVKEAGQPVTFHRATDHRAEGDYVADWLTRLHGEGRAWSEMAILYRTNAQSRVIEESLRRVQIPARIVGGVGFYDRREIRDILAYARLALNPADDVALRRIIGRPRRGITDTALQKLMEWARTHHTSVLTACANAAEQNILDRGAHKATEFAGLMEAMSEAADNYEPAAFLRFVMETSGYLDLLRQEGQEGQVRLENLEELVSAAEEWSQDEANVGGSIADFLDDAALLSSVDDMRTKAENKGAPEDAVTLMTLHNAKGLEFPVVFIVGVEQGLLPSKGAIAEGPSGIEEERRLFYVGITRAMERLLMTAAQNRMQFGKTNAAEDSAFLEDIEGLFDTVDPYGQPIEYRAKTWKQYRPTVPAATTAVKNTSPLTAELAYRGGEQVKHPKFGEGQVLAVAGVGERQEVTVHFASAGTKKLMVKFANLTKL

drUvrD FL (WT) [1] = target: T2, drUvrD FL (WT) (Deinococcus radiodurans, UniProt Q9RTI9 1-745); assay: fluorescence anisotropy; 1 mM AMPPNP; Fluorescence anisotropy: buffer A (composition not in material) + 0.05% Tween 20, 0.1 mg/mL BSA, 1 mM AMPPNP; 2.5 nM DNA, 0-8 µM protein, 80 µl, room temperature; single-site fit; settings: protein: recombinant, tags: N-terminal His-tag cleaved with TEV (pET151d), label: fluorescein (internal dT12), 25 bp duplex, other end blunt
T2 sequence: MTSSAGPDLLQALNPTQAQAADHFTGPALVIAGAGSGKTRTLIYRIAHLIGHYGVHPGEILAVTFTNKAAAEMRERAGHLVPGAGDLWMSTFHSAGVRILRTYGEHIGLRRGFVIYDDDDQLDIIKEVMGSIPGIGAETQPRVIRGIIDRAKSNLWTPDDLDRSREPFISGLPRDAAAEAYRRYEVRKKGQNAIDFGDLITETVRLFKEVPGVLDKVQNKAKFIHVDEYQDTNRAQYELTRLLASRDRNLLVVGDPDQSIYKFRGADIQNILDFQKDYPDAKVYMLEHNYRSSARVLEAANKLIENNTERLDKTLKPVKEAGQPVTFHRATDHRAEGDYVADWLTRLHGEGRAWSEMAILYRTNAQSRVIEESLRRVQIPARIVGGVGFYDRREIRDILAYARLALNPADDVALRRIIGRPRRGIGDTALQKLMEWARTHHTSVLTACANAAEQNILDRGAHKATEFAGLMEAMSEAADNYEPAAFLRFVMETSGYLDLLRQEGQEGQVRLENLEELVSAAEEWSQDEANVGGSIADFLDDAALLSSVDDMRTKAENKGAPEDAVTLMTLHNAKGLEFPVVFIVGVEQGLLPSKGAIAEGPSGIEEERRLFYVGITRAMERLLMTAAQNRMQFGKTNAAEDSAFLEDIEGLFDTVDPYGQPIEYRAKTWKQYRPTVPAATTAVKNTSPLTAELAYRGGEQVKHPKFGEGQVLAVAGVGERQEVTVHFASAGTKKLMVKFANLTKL

[2] = substrate: Nc1ncnc2c1ncn2[C@@H]1O[C@H](COP(=O)(O)OP(=O)(O)OP(=O)(O)O)[C@@H](O)[C@H]1O; assay: spectrophotometric ATPase assay; assay type: biochemical, Deinococcus radiodurans; settings: ssDNA-stimulated: excess 25mer polydT (10xKssDNA), ATP 0-1 mM, 100 nM enzyme, 5 mM MgCl2, 100 mM NaCl, pH 8.0, 25°C
Description: spectrophotometric ATPase assay on drUvrD^∆C | ATPase data measured on drUvrD^FL and drUvrD^∆C

drUvrDΔC [3] = target: T3, drUvrDΔC (Deinococcus radiodurans, UniProt Q9RTI9 1-665, del666-745); assay: X-ray crystallography (3.0 Å); fluorescein-dT21 DNA; Fluorescence anisotropy: buffer A (composition not in material) + 0.05% Tween 20, 0.1 mg/mL BSA, 1 mM AMPPNP; 2.5 nM DNA, 0-8 µM protein, 80 µl, room temperature; single-site fit; settings: protein: recombinant; tags: N-terminal His-tag cleaved with TEV (pET151d); chain copies: 2; label: fluorescein (internal dT21); 18 bp duplex, 3' overhang 7 nt at both ends
T3 sequence: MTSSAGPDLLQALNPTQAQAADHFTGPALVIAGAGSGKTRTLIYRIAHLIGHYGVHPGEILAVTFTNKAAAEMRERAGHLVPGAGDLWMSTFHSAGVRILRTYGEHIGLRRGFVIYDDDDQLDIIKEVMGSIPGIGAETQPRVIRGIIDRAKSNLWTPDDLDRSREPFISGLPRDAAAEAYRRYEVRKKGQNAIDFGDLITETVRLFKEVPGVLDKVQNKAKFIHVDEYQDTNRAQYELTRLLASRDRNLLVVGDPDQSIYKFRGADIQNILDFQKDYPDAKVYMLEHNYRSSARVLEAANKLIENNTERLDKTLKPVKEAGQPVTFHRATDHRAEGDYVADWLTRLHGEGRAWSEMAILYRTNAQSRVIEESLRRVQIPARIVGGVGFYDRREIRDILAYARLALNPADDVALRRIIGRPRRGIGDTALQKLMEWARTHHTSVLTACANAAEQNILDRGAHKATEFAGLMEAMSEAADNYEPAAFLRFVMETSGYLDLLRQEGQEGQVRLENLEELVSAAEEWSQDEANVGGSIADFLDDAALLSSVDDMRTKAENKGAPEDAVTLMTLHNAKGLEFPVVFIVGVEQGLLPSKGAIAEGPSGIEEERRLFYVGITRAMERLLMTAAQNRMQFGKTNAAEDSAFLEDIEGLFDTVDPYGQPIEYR

[4] = substrate: Nc1ncnc2c1ncn2[C@@H]1O[C@H](COP(=O)(O)OP(=O)(O)OP(=O)(O)O)[C@@H](O)[C@H]1O; assay: spectrophotometric ATPase assay; assay type: biochemical, Deinococcus radiodurans; settings: ssDNA-stimulated: excess 25mer polydT (10xKssDNA), ATP 0-1 mM, 100 nM enzyme, 5 mM MgCl2, 100 mM NaCl, pH 8.0, 25°C; remark: listed apart in the source
Description: spectrophotometric ATPase assay on drUvrD^FL | determine their apparent turnover rates (Kcat) for ATP hydrolysis, along with their Km for ATP

drUvrDΔC [5] = target: T3, drUvrDΔC; assay: X-ray crystallography (2.5 Å); AMPPNP, form I, P212121; Fluorescence anisotropy: buffer A (composition not in material) + 0.05% Tween 20, 0.1 mg/mL BSA, 1 mM AMPPNP; 2.5 nM DNA, 0-8 µM protein, 80 µl, room temperature; single-site fit; settings: protein: recombinant; tags: N-terminal His-tag cleaved with TEV (pET151d); chain copies: 2; 18 bp duplex, 3' overhang 7 nt (dT7) at both ends
drUvrD FL (WT) [6] = target: T2, drUvrD FL (WT); assay: X-ray crystallography (4.0 Å); AMPPNP, P21; Fluorescence anisotropy: buffer A (composition not in material) + 0.05% Tween 20, 0.1 mg/mL BSA, 1 mM AMPPNP; 2.5 nM DNA, 0-8 µM protein, 80 µl, room temperature; single-site fit; settings: protein: recombinant; tags: N-terminal His-tag cleaved with TEV (pET151d); 21 bp duplex, 3' overhang 7 nt (dT7) at both ends
[7] = 3' overhang 15 nt (dT15) on strand 2
[8] = 5' overhang 15 nt (dT15) on strand 2

B1: 3'-tailed dsDNA (H1T12/H3-15) (dsDNA)
DNA 1: TCGGTACGACCTGCGAGCACTGCTT
DNA 2: AAGCAGTGCTCGCAGGTCGTACCGATTTTTTTTTTTTTTT
modifications: fluorescein-dT at position 12 of strand 1
- binding result (drUvrD G426T; [7]): binds
- Kd (drUvrD FL (WT) [1]; [7]): 360 nM

B2: 5'-tailed dsDNA (H1T12/H5-15) (dsDNA)
DNA 1: TCGGTACGACCTGCGAGCACTGCTT
DNA 2: TTTTTTTTTTTTTTTAAGCAGTGCTCGCAGGTCGTACCGA
modifications: fluorescein-dT at position 12 of strand 1
- binding result (drUvrD G426T; [8]): binds
- Kd (drUvrD FL (WT) [1]; [8]): 480 nM

B3: drUvrD^∆C (Deinococcus radiodurans R1 = ATCC 13939 = DSM 20539) (protein)
chain: MTSSAGPDLLQALNPTQAQAADHFTGPALVIAGAGSGKTRTLIYRIAHLIGHYGVHPGEILAVTFTNKAAAEMRERAGHLVPGAGDLWMSTFHSAGVRILRTYGEHIGLRRGFVIYDDDDQLDIIKEVMGSIPGIGAETQPRVIRGIIDRAKSNLWTPDDLDRSREPFISGLPRDAAAEAYRRYEVRKKGQNAIDFGDLITETVRLFKEVPGVLDKVQNKAKFIHVDEYQDTNRAQYELTRLLASRDRNLLVVGDPDQSIYKFRGADIQNILDFQKDYPDAKVYMLEHNYRSSARVLEAANKLIENNTERLDKTLKPVKEAGQPVTFHRATDHRAEGDYVADWLTRLHGEGRAWSEMAILYRTNAQSRVIEESLRRVQIPARIVGGVGFYDRREIRDILAYARLALNPADDVALRRIIGRPRRGIGDTALQKLMEWARTHHTSVLTACANAAEQNILDRGAHKATEFAGLMEAMSEAADNYEPAAFLRFVMETSGYLDLLRQEGQEGQVRLENLEELVSAAEEWSQDEANVGGSIADFLDDAALLSSVDDMRTKAENKGAPEDAVTLMTLHNAKGLEFPVVFIVGVEQGLLPSKGAIAEGPSGIEEERRLFYVGITRAMERLLMTAAQNRMQFGKTNAAEDSAFLEDIEGLFDTVDPYGQPIEYR
notes: C-terminally truncated, missing residues 666-745; pET151d, E. coli BL21 (DE3), N-terminal His-tag cut with TEV protease; crystallized as a monomer, two per DNA duplex
- Km [2]: 77.0 ± 16.9 µM
- kcat [2]: 213.2 ± 11.7 s⁻¹

B4: For25-21F/Rev25-21F (dsDNA)
DNA 1: GCAGTGCTCGCAGGTCGTTTTTTTT
DNA 2: ACGACCTGCGAGCACTGCTTTTTTT
modifications: fluorescein-dT at position 21 of both strands
- binding result (drUvrDΔC [3]): binds

B5: drUvrD^FL (Deinococcus radiodurans R1 = ATCC 13939 = DSM 20539) (protein)
chain: MTSSAGPDLLQALNPTQAQAADHFTGPALVIAGAGSGKTRTLIYRIAHLIGHYGVHPGEILAVTFTNKAAAEMRERAGHLVPGAGDLWMSTFHSAGVRILRTYGEHIGLRRGFVIYDDDDQLDIIKEVMGSIPGIGAETQPRVIRGIIDRAKSNLWTPDDLDRSREPFISGLPRDAAAEAYRRYEVRKKGQNAIDFGDLITETVRLFKEVPGVLDKVQNKAKFIHVDEYQDTNRAQYELTRLLASRDRNLLVVGDPDQSIYKFRGADIQNILDFQKDYPDAKVYMLEHNYRSSARVLEAANKLIENNTERLDKTLKPVKEAGQPVTFHRATDHRAEGDYVADWLTRLHGEGRAWSEMAILYRTNAQSRVIEESLRRVQIPARIVGGVGFYDRREIRDILAYARLALNPADDVALRRIIGRPRRGIGDTALQKLMEWARTHHTSVLTACANAAEQNILDRGAHKATEFAGLMEAMSEAADNYEPAAFLRFVMETSGYLDLLRQEGQEGQVRLENLEELVSAAEEWSQDEANVGGSIADFLDDAALLSSVDDMRTKAENKGAPEDAVTLMTLHNAKGLEFPVVFIVGVEQGLLPSKGAIAEGPSGIEEERRLFYVGITRAMERLLMTAAQNRMQFGKTNAAEDSAFLEDIEGLFDTVDPYGQPIEYRAKTWKQYRPTVPAATTAVKNTSPLTAELAYRGGEQVKHPKFGEGQVLAVAGVGERQEVTVHFASAGTKKLMVKFANLTKL
notes: full-length (residues to 745), pET151d, E. coli BL21 (DE3), N-terminal His-tag cut with TEV protease; crystallized as a monomer, two per DNA duplex
- Km [4]: 62.1 ± 6.6 µM
- kcat [4]: 149.3 ± 3.5 s⁻¹

B6: For25/Rev25 (dsDNA)
DNA 1: GCAGTGCTCGCAGGTCGTTTTTTTT
DNA 2: ACGACCTGCGAGCACTGCTTTTTTT
- binding result (drUvrDΔC [5]): binds

B7: For28/Rev28 (dsDNA)
DNA 1: GCAGTGCTCGCAGGTCGTACCTTTTTTT
DNA 2: GGTACGACCTGCGAGCACTGCTTTTTTT
- binding result (drUvrD FL (WT) [6]): binds
